{
  "source": "patent US20250304707A1",
  "about": "(JOINT STOCK COMPANY BIOCAD, published 2025)",
  "binders": {"B1": {"name": "Antibody 01-001 (antibody, human IgG1, kappa, L234A L235A, V domains shown)", "VH": "EVQLVQSGGGLVQPGGSLRLSCAVSGFTLSSSAMSWVRQAPGKGFEWVSGYNGGSDRAGFADSVEGRFTISRDNAKNTLYLQMNSLKPEDTAVYYCARYIANSGTYYWDYWGQGTLVTVSS", "VL": "QPVLTQPPSASGTPGQRVTISCSGSSSNIGSNTVNWYQQLPGTAPKLLIYNDSQRPSGVPDQFSGSKSGTSASLAISGLQSDNEADYYCAAWDGSLNVWMFGGGTKVTVLR", "notes": "Full-length human IgG1 with L234A/L235A (pEE-HCLALA IgG1 vector) and CK light chain constant domain (pEE-CK), made in CHO-T cells; also called candidate 01"}, "B2": {"name": "Antibody 01-021 (antibody, human IgG1, kappa, L234A L235A, V domains shown)", "VH": "B1 VH with E1Q, V24A, L29F, S32G, A33L", "VL": "not shown", "notes": "Full-length human IgG1 with L234A/L235A (pEE-HCLALA IgG1 vector) and CK light chain constant domain (pEE-CK), made in CHO-T cells; also called candidate 021"}, "B3": {"name": "Antibody 01-025 (antibody, human IgG1, kappa, L234A L235A, V domains shown)", "VH": "B1 VH with P14S, L20V, V24A, L29F, S32G, A33L, F60Y, A61T, E65K, L116T", "VL": "QPVLTQPPSVSEAPRQRVTISCSGSSSNIGNNAVNWYQQLPGKAPKLLIYSTNQRPSGVPDRFSGSKSGTSASLAISGLQSEDEADYYCAAWDDRVSAWLFGGGTKLTVLR", "notes": "Full-length human IgG1 with L234A/L235A (pEE-HCLALA IgG1 vector) and CK light chain constant domain (pEE-CK), made in CHO-T cells; also called candidate 025"}, "B4": {"name": "Antibody 01-037 (antibody, human IgG1, kappa, L234A L235A, V domains shown)", "VH": "B1 VH with P14S, L20V, V24A, L29F, S32G, A33L, F60Y, A61T, E65K, L116T", "VL": "SYVLTQPPSASGTPGQRVTISCSGTRSNIGTNTVNWYQQLPGTAPKLLIYRNNQRPSGVPDRFSGSKSGTSASLAISGLQSEDEADYYCAVWDDRVSAWLFGGGTKLTVLR", "notes": "Full-length human IgG1 with L234A/L235A (pEE-HCLALA IgG1 vector) and CK light chain constant domain (pEE-CK), made in CHO-T cells; also called candidate 037"}, "B5": {"name": "Antibody 01-030 (antibody, human IgG1, kappa, L234A L235A, V domains shown)", "VH": "B1 VH with L20V, V24A, T28S, L29F, S32G, A33L", "VL": "QSALTQPPSASGTPGQRVTISCSGSISNIGSNTVNWYQHLPGTAPKLLIYNHNQRPSGVPDRFSGSTSGTSASLAISGLQSEDEADYFCATWDDSLSAWLFGGGTKLTVLR", "notes": "Full-length human IgG1 with L234A/L235A (pEE-HCLALA IgG1 vector) and CK light chain constant domain (pEE-CK), made in CHO-T cells; also called candidate 030"}, "B6": {"name": "Antibody 01-027 (antibody, human IgG1, kappa, L234A L235A, V domains shown)", "VH": "B1 VH with P14S, L20V, V24A, L29F, S32G, A33L, F60Y, A61T, E65K, L116T", "VL": "QAVLTQPPSASGTPGQRVSISCSGGISNIGSNIVNWYQHLPGTAPKLLIYSGNQRPSGVPDRFSGSKSGTSASLAISGLQSEDEADYYCSSWDSDLRNWVFGGGTKLTVLR", "notes": "Full-length human IgG1 with L234A/L235A (pEE-HCLALA IgG1 vector) and CK light chain constant domain (pEE-CK), made in CHO-T cells; also called candidate 027"}, "B7": {"name": "Antibody 01-026 (antibody, human IgG1, kappa, L234A L235A, V domains shown)", "VH": "B1 VH with P14S, L20V, V24A, L29F, S32G, A33L, F60Y, A61T, E65K, L116T", "VL": "QSVLTQPPSVSGAPGQRVTISCTGSSSNIGAGYDVHWYQQLPGTAPKLVIYGNTNRPSGVPDRFSGSKSGTSASLAISGLQSEDEADYYCAAWDDSLNGWVFGGGTKLTVLR", "notes": "Full-length human IgG1 with L234A/L235A (pEE-HCLALA IgG1 vector) and CK light chain constant domain (pEE-CK), made in CHO-T cells; also called candidate 026"}, "B8": {"name": "Antibody 01-016 (antibody, human IgG1, kappa, L234A L235A, V domains shown)", "VH": "B1 VH with L29F, A33V", "VL": "B3 VL with Y50F, S51K, T52N, A75V, D94G, R95S, V96L, S97N, L100M", "notes": "Full-length human IgG1 with L234A/L235A (pEE-HCLALA IgG1 vector) and CK light chain constant domain (pEE-CK), made in CHO-T cells; also called candidate 016"}, "B9": {"name": "Antibody 01-006 (antibody, human IgG1, kappa, L234A L235A, V domains shown)", "VH": "B1 VH with A23S, V24A, L29F, S32G, A33L, F60Y, A61T, E65K", "VL": "QAVLTQPPSVSGTPGQRVTISCSGSTSNIGHRTVNWYQQFPGAAPKLLIYRNNQRPSGVPARFSGSKSGTSASLAISGLQSEDEADYHCAAWDDSLTAWVFGGGTQLTVLR", "notes": "Full-length human IgG1 with L234A/L235A (pEE-HCLALA IgG1 vector) and CK light chain constant domain (pEE-CK), made in CHO-T cells; also called candidate 06"}, "B10": {"name": "Antibody 01-024 (antibody, human IgG1, kappa, L234A L235A, V domains shown)", "VH": "EVQLVQSGGGLVQSGGSLRVSCAASGFTFSSGLMSWVRQAPGKGFEWVSCYNGGSDRAGYTDSVKGRFTISRDNAKNTLYLQMNSLKPEDTAVYYCARYIANSGTYYWDYWGQGTTVTVSS", "VL": "B6 VL", "notes": "Full-length human IgG1 with L234A/L235A (pEE-HCLALA IgG1 vector) and CK light chain constant domain (pEE-CK), made in CHO-T cells; also called candidate 024"}, "B11": {"name": "Antibody 01-022 (antibody, human IgG1, kappa, L234A L235A, V domains shown)", "VH": "B10 VH with C50G", "VL": "not shown", "notes": "Full-length human IgG1 with L234A/L235A (pEE-HCLALA IgG1 vector) and CK light chain constant domain (pEE-CK), made in CHO-T cells; also called candidate 022"}, "B12": {"name": "Antibody 01-033 (antibody, human IgG1, kappa, L234A L235A, V domains shown)", "VH": "EVQLVQSGGGLVQPGGSLRLSCAASGFTFSSGLMSWVRQAPGGFEWVSGYNGGSDRAGFADSVEGRFTISRDNAKNTLYLQMNSLKPEDTAVYYCARYIANSGTYYWDYWGQGTTVTVSS", "VL": "not shown", "notes": "Full-length human IgG1 with L234A/L235A (pEE-HCLALA IgG1 vector) and CK light chain constant domain (pEE-CK), made in CHO-T cells; also called candidate 033"}},
  "note": "Changes are numbered by the printed parent chain. Names may count otherwise.",
  "data": [
    {"target": "T1, human BCMA on the surface of RPMI8226 cells (human, UniProt Q02223 1-184)", "T1 construct": "whole, on cells; also called BCMA receptor; RPMI8226 (BCMA+)", "T1 sequence (looked up)": "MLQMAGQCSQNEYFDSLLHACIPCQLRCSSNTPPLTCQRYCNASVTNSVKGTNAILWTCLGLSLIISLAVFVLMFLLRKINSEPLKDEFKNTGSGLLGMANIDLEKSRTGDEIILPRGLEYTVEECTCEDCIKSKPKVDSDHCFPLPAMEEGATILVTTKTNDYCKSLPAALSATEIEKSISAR", "test": "flow cytometry on RPMI8226 (BCMA+) cells, anti-human Fc-PE, one antibody concentration (not given)", "values": [
      {"binder": "B1", "Fluorescent signal level (sample/background)": 10.7},
      {"binder": "B2", "Fluorescent signal level (sample/background)": 9.99},
      {"binder": "B3", "Fluorescent signal level (sample/background)": 15},
      {"binder": "B4", "Fluorescent signal level (sample/background)": 11.7},
      {"binder": "B5", "Fluorescent signal level (sample/background)": 16.5},
      {"binder": "B6", "Fluorescent signal level (sample/background)": 19.1},
      {"binder": "B7", "Fluorescent signal level (sample/background)": 12.1},
      {"binder": "B8", "Fluorescent signal level (sample/background)": 7.87},
      {"binder": "B9", "Fluorescent signal level (sample/background)": 9.61},
      {"binder": "B10", "Fluorescent signal level (sample/background)": 19.9},
      {"binder": "B11", "Fluorescent signal level (sample/background)": 9.57},
      {"binder": "B12", "Fluorescent signal level (sample/background)": 14.7}
    ]},
    {"target": "T2, human BCMA (soluble analyte of Examples 8 and 14) (human, UniProt Q02223 1-54, limits assumed)", "T2 sequence (looked up)": "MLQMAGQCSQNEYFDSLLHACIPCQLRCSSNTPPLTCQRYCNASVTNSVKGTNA", "test": "BLI competition, APRIL/TNFSF13 (competitor) on AR2G sensors, premix 710 nM antibody + 71 nM human BCMA; without antibody 0.6588 nm", "units": {"Response (premix of antibody and BCMA on APRIL sensors)": "nm"}, "values": [
      {"binder": "B1", "Response (premix of antibody and BCMA on APRIL sensors)": -0.0081},
      {"binder": "B2", "Response (premix of antibody and BCMA on APRIL sensors)": -0.0015},
      {"binder": "B3", "Response (premix of antibody and BCMA on APRIL sensors)": 0.0259},
      {"binder": "B4", "Response (premix of antibody and BCMA on APRIL sensors)": 0.0304},
      {"binder": "B5", "Response (premix of antibody and BCMA on APRIL sensors)": -0.0066},
      {"binder": "B6", "Response (premix of antibody and BCMA on APRIL sensors)": 0.017},
      {"binder": "B7", "Response (premix of antibody and BCMA on APRIL sensors)": 0.0111},
      {"binder": "B8", "Response (premix of antibody and BCMA on APRIL sensors)": -0.0062},
      {"binder": "B9", "Response (premix of antibody and BCMA on APRIL sensors)": 0.0464},
      {"binder": "B10", "Response (premix of antibody and BCMA on APRIL sensors)": 0.0151},
      {"binder": "B11", "Response (premix of antibody and BCMA on APRIL sensors)": 0.013},
      {"binder": "B12", "Response (premix of antibody and BCMA on APRIL sensors)": -0.0078}
    ]}
  ]
}
